Measured values reported in IntAct's records for PubMed 17161399.

B1: Protein VAC14 homolog (Homo sapiens), Q08AM6 (parent)
chain: MNPEKDFAPLTPNIVRALNDKLYEKRKVAALEIEKLVREFVAQNNTVQIKHVIQTLSQEFALSQHPHSRKGGLIGLAACSIALGKDSGLYLKELIEPVLTCFNDADSRLRYYACEALYNIVKVARGAVLPHFNVLFDGLSKLAADPDPNVKSGSELLDRLLKDIVTESNKFDLVSFIPLLRERIYSNNQYARQFIISWILVLESVPDINLLDYLPEILDGLFQILGDNGKEIRKMCEVVLGEFLKEIKKNPSSVKFAEMANILVIHCQTTDDLIQLTAMCWMREFIQLAGRVMLPYSSGILTAVLPCLAYDDRKKSIKEVANVCNQSLMKLVTPEDDELDELRPGQRQAEPTPDDALPKQEGTASGGPDGSCDSSFSSGISVFTAASTERAPVTLHLDGIVQVLNCHLSDTAIGMMTRIAVLKWLYHLYIKTPRKMFRHTDSLFPILLQTLSDESDEVILKDLEVLAEIASSPAGQTDDPGPLDGPDLQASHSELQVPTPGRAGLLNTSGTKGLECSPSTPTMNSYFYKFMINLLKRFSSERKLLEVRGPFIIRQLCLLLNAENIFHSMADILLREEDLKFASTMVHALNTILLTSTELFQLRNQLKDLKTLESQNLFCCLYRSWCHNPVTTVSLCFLTQNYRHAYDLIQKFGDLEVTVDFLAEVDKLVQLIECPIFTYLRLQLLDVKNNPYLIKALYGLLMLLPQSSAFQLLSHRLQCVPNPELLQTEDSLKAAPKSQKADSPSIDYAELLQHFEKVQNKHLEVRHQRSGRGDHLDRRVVL

Variants of: B1
Details: with nos1_human NOS1, P29475
Sequence of nos1_human NOS1, P29475 (P29475 whole entry): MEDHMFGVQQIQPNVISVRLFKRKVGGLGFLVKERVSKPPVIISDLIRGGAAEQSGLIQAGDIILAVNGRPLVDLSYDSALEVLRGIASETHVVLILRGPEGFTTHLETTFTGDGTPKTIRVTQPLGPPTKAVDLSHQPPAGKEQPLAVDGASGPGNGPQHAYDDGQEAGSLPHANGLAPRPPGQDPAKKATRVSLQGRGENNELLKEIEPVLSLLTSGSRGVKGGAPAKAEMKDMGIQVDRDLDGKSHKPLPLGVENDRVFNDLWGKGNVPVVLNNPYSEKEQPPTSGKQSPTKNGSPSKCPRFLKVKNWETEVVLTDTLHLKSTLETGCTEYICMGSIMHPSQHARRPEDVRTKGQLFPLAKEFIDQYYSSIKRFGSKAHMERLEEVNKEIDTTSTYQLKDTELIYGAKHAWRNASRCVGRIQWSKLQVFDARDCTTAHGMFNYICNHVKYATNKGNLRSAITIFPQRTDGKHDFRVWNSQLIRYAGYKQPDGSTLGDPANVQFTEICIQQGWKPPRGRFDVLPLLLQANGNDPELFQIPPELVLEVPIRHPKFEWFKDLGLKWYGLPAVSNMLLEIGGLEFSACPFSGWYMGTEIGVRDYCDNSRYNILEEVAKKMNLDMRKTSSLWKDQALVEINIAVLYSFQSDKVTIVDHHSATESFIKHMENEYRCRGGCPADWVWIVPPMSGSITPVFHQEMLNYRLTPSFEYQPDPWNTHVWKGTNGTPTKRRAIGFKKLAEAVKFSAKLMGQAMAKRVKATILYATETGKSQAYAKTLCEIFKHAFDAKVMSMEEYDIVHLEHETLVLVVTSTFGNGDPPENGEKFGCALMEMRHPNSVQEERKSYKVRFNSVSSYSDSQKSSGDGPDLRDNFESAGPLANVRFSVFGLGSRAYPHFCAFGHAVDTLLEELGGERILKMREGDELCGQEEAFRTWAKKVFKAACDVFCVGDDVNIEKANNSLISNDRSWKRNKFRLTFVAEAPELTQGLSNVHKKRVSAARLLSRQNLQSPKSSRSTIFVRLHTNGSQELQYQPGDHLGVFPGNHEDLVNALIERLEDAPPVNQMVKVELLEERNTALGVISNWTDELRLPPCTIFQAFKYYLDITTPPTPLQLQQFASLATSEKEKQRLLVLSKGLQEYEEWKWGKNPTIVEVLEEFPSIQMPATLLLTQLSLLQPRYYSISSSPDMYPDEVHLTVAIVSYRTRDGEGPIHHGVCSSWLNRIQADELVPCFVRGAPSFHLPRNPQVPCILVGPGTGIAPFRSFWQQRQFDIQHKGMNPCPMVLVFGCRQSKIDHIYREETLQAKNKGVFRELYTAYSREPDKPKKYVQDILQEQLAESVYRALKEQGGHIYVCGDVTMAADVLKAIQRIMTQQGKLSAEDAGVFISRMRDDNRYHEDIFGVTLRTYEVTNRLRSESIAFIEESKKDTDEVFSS

Variant	effect of a mutation on the interaction
D774A	disrupting interaction
L776A	disrupting interaction
G773A	decreasing interaction

Variants of: B1
Details: with nos1_human NOS1, P29475
Remark: another data set of the same source

Variant	effect of a mutation on the interaction
D777A	disrupting interaction
